Results taken from paper PMC10693628, “Novel WYL domain-containing transcriptional activator acts in response to genotoxic stress in rapidly growing mycobacteria” (Communications Biology, 2023).
Numbering of substitutions follows the chain as printed. Values belong to the molecule of their own block, whether it stands above or below them.

Experiments:
[1] = target: Sumo-SiwR (His6-TEV-Sumo-linker fused to the N-terminus of SiwR, stress-involved WYL domain-containing regulator, MSMEG_1359) (Mycobacterium smegmatis) (UniProt A0QS56); assay: SEC; analytical gel filtration, Superdex 200 Increase 10/300 GL, buffer GF (50 mM HEPES-KOH pH 7.0, 150 mM NaCl, 0.5 mM TCEP, 1 mM EDTA); SiwR 40 uM protomer, MSMEG_1357 or MSMEG_1356 100 uM protomer; incubated at 37 °C for 20 min, run at 0.5 mL/min at room temperature
[2] = target: MSMEG_1356 (DUF664 family protein, DinB/YfiT-like putative metalloenzymes superfamily) (Mycobacterium smegmatis) (UniProt A0QS54); assay: SEC; gel filtration step of the purification, Superdex 75 10/300 GL 24 mL, after dialysis against buffer D (50 mM HEPES-KOH pH 7.0, 150 mM NaCl, 0.5 mM TCEP)
[3] = target: MSMEG_1356 (DUF664 family protein, DinB/YfiT-like putative metalloenzymes superfamily) (Mycobacterium smegmatis) (UniProt A0QS54); assay: SEC; analytical gel filtration, Superdex 200 Increase 10/300 GL, buffer GF (50 mM HEPES-KOH pH 7.0, 150 mM NaCl, 0.5 mM TCEP, 1 mM EDTA); SiwR 40 uM protomer, MSMEG_1357 or MSMEG_1356 100 uM protomer; incubated at 37 °C for 20 min, run at 0.5 mL/min at room temperature
Sumo-SiwR [4] = target: T1, Sumo-SiwR (Mycobacterium smegmatis, UniProt A0QS56 1-320); assay: fluorescence anisotropy; EMSA: 5 mM HEPES-KOH pH 7.0, 30 mM NaCl, 2.5% Ficoll 400K, 1% glycerol, 5 nM probe (10 nM in Fig. 2a legend), 37 °C 15 min; anisotropy: 5 mM HEPES-KOH pH 7, 30; conditions: protein: recombinant, tags: His6-TEV-Sumo N-terminal fusion, chain copies: 2
T1 sequence: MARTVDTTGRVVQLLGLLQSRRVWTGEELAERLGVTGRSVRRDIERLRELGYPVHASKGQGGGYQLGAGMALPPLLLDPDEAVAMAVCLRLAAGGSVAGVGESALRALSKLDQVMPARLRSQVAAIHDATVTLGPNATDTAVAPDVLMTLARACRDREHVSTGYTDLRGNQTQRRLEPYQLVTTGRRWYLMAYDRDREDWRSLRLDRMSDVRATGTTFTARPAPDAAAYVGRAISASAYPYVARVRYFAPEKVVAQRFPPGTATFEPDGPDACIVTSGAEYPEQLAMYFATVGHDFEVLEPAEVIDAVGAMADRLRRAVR

Sumo-SiwR [5] = target: T1, Sumo-SiwR; assay: EMSA; EMSA: 5 mM HEPES-KOH pH 7.0, 30 mM NaCl, 2.5% Ficoll 400K, 1% glycerol, 5 nM probe (10 nM in Fig. 2a legend), 37 °C 15 min; anisotropy: 5 mM HEPES-KOH pH 7, 30; conditions: protein: recombinant; tags: His6-TEV-Sumo N-terminal fusion; chain copies: 2; label: 5'-FAM on strand 1; blunt
Sumo-SiwR [6] = target: T1, Sumo-SiwR; assay: fluorescence anisotropy; Kd for SiwR dimer; EMSA: 5 mM HEPES-KOH pH 7.0, 30 mM NaCl, 2.5% Ficoll 400K, 1% glycerol, 5 nM probe (10 nM in Fig. 2a legend), 37 °C 15 min; anisotropy: 5 mM HEPES-KOH pH 7, 30; conditions: protein: recombinant; tags: His6-TEV-Sumo N-terminal fusion; chain copies: 2; label: 5'-FAM on strand 2; blunt
Sumo-SiwR R204A-R207A [7] = target: T2, Sumo-SiwR R204A-R207A (Mycobacterium smegmatis, UniProt A0QS56 1-320, R204A;R207A); assay: EMSA; comparable to wild type; EMSA: 5 mM HEPES-KOH pH 7.0, 30 mM NaCl, 2.5% Ficoll 400K, 1% glycerol, 5 nM probe (10 nM in Fig. 2a legend), 37 °C 15 min; anisotropy: 5 mM HEPES-KOH pH 7, 30; conditions: protein: recombinant; tags: His6-TEV-Sumo N-terminal fusion; chain copies: 2; label: 5'-FAM on strand 2; blunt
T2 sequence: T1 sequence with R204A, R207A

[8] = target: the molecule itself; assay: SEC; analytical gel filtration, Superdex 200 Increase 10/300 GL, buffer GF (50 mM HEPES-KOH pH 7.0, 150 mM NaCl, 0.5 mM TCEP, 1 mM EDTA); SiwR 40 uM protomer, MSMEG_1357 or MSMEG_1356 100 uM protomer; incubated at 37 °C for 20 min, run at 0.5 mL/min at room temperature
Sumo-SiwR R204A-R207A [9] = target: T2, Sumo-SiwR R204A-R207A; assay: fluorescence anisotropy; EMSA: 5 mM HEPES-KOH pH 7.0, 30 mM NaCl, 2.5% Ficoll 400K, 1% glycerol, 5 nM probe (10 nM in Fig. 2a legend), 37 °C 15 min; anisotropy: 5 mM HEPES-KOH pH 7, 30; conditions: protein: recombinant; tags: His6-TEV-Sumo N-terminal fusion; chain copies: 2; label: FAM

- stoichiometry N [1]: 2
Molecule: Sumo-SiwR (His6-TEV-Sumo-linker fused to the N-terminus of SiwR, stress-involved WYL domain-containing regulator, MSMEG_1359) (from UniProt A0QS56 1-320) (natural protein)

- stoichiometry N [2]: 2
- stoichiometry N [3]: 2
Molecule: MSMEG_1356 (DUF664 family protein, DinB/YfiT-like putative metalloenzymes superfamily) (from UniProt A0QS54 1-203) (natural protein)

B1: 12-nt ssDNA 8-oxoG (ssDNA)
DNA: CGTCAGTCCAGT
modifications: 8-oxoguanine at position 6
- Kd (Sumo-SiwR [4]; label: 5'-FAM): 0.227 µM

B2: 12-nt ssDNA (ssDNA)
DNA: CGTCAGTCCAGT
- Kd (Sumo-SiwR [4]; label: 5'-FAM): 0.178 µM

B3: 12-nt ssRNA (ssRNA)
RNA: CGUCAGUCCAGU
- binding result (Sumo-SiwR [4]): no binding

B4: fragment c (dsDNA)
DNA 1: TGACAGGCATATAGGACAGTTCCGGTCCTAAAAGTGCGGC
DNA 2: GCCGCACTTTTAGGACCGGAACTGTCCTATATGCCTGTCA
- binding result (Sumo-SiwR [5]): binds

B5: 5' tailed DNA (dsDNA)
DNA 1: CGTCAGTCCAGT
DNA 2: GTCAGCAGCCTAACTGGACTGACG
- Kd (Sumo-SiwR [4]; label: 5'-FAM on strand 1, 12 bp duplex, 5' overhang 12 nt on strand 2): 0.306 µM

B6: fragment b (dsDNA)
DNA 1: TCCGGTCCTAAAAGTGCGGCAGACTTGTCGC
DNA 2: GCGACAAGTCTGCCGCACTTTTAGGACCGGA
- binding result (Sumo-SiwR [5]): no binding

B7: msmeg_1357-56 promoter (dsDNA)
DNA 1: TGACCCACCCTGACAGGCATATAGGACAGTTCCGGTCCTAAAAGTGCGGCAGACTTGTCG
DNA 2: CGACAAGTCTGCCGCACTTTTAGGACCGGAACTGTCCTATATGCCTGTCAGGGTGGGTCA
- Kd (Sumo-SiwR [6]): 0.651 µM
- binding result (Sumo-SiwR R204A-R207A [7]): binds

B8: DNA fork mimic (dsDNA)
DNA 1: CGTCAGTCCAGTATCCGACGACTG
DNA 2: CAGTCGTCGGATTGACCTGACTGC
- Kd (Sumo-SiwR [4]; label: 5'-FAM on strand 1, fork 1:2, 12 bp duplex with 12-nt 5' tail (strand 1) and 12-nt 3' tail (strand 2)): 0.898 µM

B9: MSMEG_1357 (DinB_2 family protein, DinB/YfiT-like putative metalloenzymes superfamily) (natural protein, Mycobacterium smegmatis, UniProt A0QS55 1-175, looked up)
chain: MDIDLIADQLDFHWTHQLRPRLDGLTDDEYFWQPVPGCWTVHADGSIDFSYPEPQPTPFTTIAWRLAHVIVGVLAMRNHSHFGGPPADYQTWPYATDAKTALEQLDDAHRNWITGVRALSEDDLQRPVGPAEGPWADHPMSELVLHINREVIHHGAEIACIRDLYAHTNNTAEEN
notes: MSMEG_1357, DinB_2 family (pfam12867) protein of Mycobacterium smegmatis; expressed from a pET21-His6-TEV-MSMEG_1357 plasmid; The construct name puts His6-TEV before the protein; No TEV cleavage is described; also called His6-TEV-MSMEG_1357
- stoichiometry N [8]: 2

B10: polyT20 (ssDNA)
DNA: TTTTTTTTTTTTTTTTTTTT
- binding result (Sumo-SiwR R204A-R207A [9]): no binding
- Kd (Sumo-SiwR [4]; label: FAM): 0.182 µM

B11: fragment d (dsDNA)
DNA 1: GGCATATAGGACAGTTCCGGTCCTAAAAGT
DNA 2: ACTTTTAGGACCGGAACTGTCCTATATGCC
- binding result (Sumo-SiwR [5]): binds

B12: 3' tailed DNA (dsDNA)
DNA 1: GCAGTCAGGTCAATCCGACGACTG
DNA 2: TGACCTGACTGC
- Kd (Sumo-SiwR [4]; label: FAM on strand 1, 12 bp duplex, 3' overhang 12 nt on strand 1): 0.702 µM

B13: fragment a (dsDNA)
DNA 1: GTGACCCACCCTGACAGGCATATAGGACAGT
DNA 2: ACTGTCCTATATGCCTGTCAGGGTGGGTCAC
- binding result (Sumo-SiwR [5]): no binding
